The values that follow come from US20220072120A1 (University of Washington, published 2022).

The target of the assay is I53-dn5 B. As to the kind of experiment: in vitro nanoparticle assembly; SEC on Superose 6, SDS-PAGE.

B1: I53-dn5 A.2 (A_LF2_W16G_LS) (designed binder)
chain: MGKYDGSKLRIGILHARGNAEIILELVLGALKRLQEFGVKRENIIIETVPGSFELPYGSKLFVEKQKRLGKPLDAIIPIGVLIRGSTAHFDYIADSTTHQLMKLNFELGIPVIFGVLTTESDEQAEERAGTKAGNHGEDWGAAAVEMATKFN
B1: the binding result is on record as “binds”.
